Results reported in patent publication US20050064593A1 (WALTER AND ELIZA HALL INSTITUTE OF MEDICAL RESEARCH, published 2005).
Numbering of substitutions follows the chain as printed. Names and notes keep the numbering of the source. Values belong to the binder of their own block, whether it stands above or below them.

Columns and labels:
[1] = biological target: T1, mouse Mcl-1 lacking its hydrophobic C-terminus (yeast 2-hybrid bait in pGBT-9) (mouse, UniProt P97287 1-307); experiment: yeast 2-hybrid screen
T1 construct: not shown: GAL4 domain of pGBT-9
T1 sequence (P97287 1-307): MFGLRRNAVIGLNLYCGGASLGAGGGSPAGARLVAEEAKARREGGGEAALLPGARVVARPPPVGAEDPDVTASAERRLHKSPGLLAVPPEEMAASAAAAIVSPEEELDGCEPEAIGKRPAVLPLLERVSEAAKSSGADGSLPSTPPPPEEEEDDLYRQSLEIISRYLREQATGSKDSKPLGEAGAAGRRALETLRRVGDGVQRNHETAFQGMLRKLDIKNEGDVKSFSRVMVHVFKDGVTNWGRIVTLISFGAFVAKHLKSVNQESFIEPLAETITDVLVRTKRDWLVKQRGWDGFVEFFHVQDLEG

[2] = biological target: mouse dynein light chain 2 (DLC2) (mouse, UniProt Q9D0M5 1-89); experiment: yeast 2-hybrid
Chain of mouse dynein light chain 2 (DLC2) (Q9D0M5 whole entry): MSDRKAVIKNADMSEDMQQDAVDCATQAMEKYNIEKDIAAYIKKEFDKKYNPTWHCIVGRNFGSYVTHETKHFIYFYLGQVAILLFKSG

binding result [1]: binds
B1: Bmf (Bcl-2 modifying factor), mouse, wild-type, as used in the yeast 2-hybrid system (other)
chain: MEPPQCVEELEDDVFQSEDGEPGTQPGGLLSADLFAQSQLDCPLSRLQLFPLTHCCGPGLRPISQEDKATQTLSPASPSQGVMLPCGVTEEPQRLFYGNAGYRLPLPASFPAGSPLGEQPPEGQFLQHRAEVQIARKLQCIADQFHRLHTQQHQQNRDRAWWQVFLFLQNLALNRQENREGVGPW
notes: The clone first isolated with Mcl-1 as bait was a partial one lacking the 5' end; Mouse bmf was later subcloned as bait; also called the novel protein; not shown: GAL4 domain of the yeast 2-hybrid vector (pAD-GAL4-2.1 for the library clone, a pGBT-9 derivative for Bmf as bait); limi

binding result [2]: no binding
B2: Bmf A69P mutant as tested in yeast (other)
chain: B1 chain with A69P
notes: Yeast construct of the mutant is not described further; not shown: GAL4 domain of the yeast 2-hybrid vector

binding result [2]: no binding
B3: Bmf AAA mutant (D67K68A69:>AAA) as tested in yeast (other)
chain: B1 chain with D67A, K68A
notes: Yeast construct of the mutant is not described further; also called AAA mutation; not shown: GAL4 domain of the yeast 2-hybrid vector
